Laboratory results: publication PMC11557873 (Nature Communications, 2024)
Changes are numbered by the printed parent chain. In names and notes the source's numbering stands.

T1: hgp130.hFc (human gp130 aa E23-E619 with a hFc tag) (human, UniProt P40189 23-619)
T1 sequence: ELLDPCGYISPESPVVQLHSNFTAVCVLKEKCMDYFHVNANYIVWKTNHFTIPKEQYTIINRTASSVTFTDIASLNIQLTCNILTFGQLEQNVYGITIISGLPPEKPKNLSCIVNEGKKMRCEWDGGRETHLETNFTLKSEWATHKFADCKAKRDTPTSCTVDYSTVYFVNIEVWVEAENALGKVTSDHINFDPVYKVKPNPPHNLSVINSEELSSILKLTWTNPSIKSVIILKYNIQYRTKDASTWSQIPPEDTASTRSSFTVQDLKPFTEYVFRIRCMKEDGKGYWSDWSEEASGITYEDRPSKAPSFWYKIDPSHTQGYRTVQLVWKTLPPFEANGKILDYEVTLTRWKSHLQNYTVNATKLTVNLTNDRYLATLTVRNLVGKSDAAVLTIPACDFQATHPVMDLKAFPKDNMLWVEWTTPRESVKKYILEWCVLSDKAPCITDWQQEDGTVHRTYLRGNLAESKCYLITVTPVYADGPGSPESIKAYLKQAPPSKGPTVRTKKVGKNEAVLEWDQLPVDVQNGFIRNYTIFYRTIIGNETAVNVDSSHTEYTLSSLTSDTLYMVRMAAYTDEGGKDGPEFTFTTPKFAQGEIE

B1: short form hOSM WT (hOSM_short, aa A26-R221), C-terminal myc-myc-His (ligand)
chain: AAIGSCSKEYRVLLGQLQKQTDLMQDTSRLLDPYIRIQGLDVPKLREHCRERPGAFPSEETLRGLGRRGFLQTLNATLGCVLHRLADLEQRLPKAQDLERSGLNIEDLEKLQMARPNILGLRNNIYCMAQLLDNSDTAEPTKAGRGASQPPTPTPASDAFQRKLEGCRFLHGYHRFMHSVGRVFSKWGESPNRSRR
B2: short form hOSM mutant V37R (ligand)
chain: B1 chain with V12R
B3: short form hOSM variant C31S/C152S (ligand)
chain: B1 chain with C6S, C127S
B4: short form hOSM variant Δ(A26-E34)/C152S (aa Y35-R221) (ligand)
chain: YRVLLGQLQKQTDLMQDTSRLLDPYIRIQGLDVPKLREHCRERPGAFPSEETLRGLGRRGFLQTLNATLGCVLHRLADLEQRLPKAQDLERSGLNIEDLEKLQMARPNILGLRNNIYSMAQLLDNSDTAEPTKAGRGASQPPTPTPASDAFQRKLEGCRFLHGYHRFMHSVGRVFSKWGESPNRSRR

Target: T1, hgp130.hFc (human gp130 aa E23-E619 …)
Assay: SPR

Binder | Kd | binding result
B1 | 8.58 nM | –
B2 | – | binds
B3 | 69 nM | –
B4 | 40.9 nM | –
